Assay: yeast display, Sf9 membrane polyspecificity reagent, FACS + sequencing; frameworks hold sequencing errors
In short: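 Nanobodies from a synthetic yeast display library (Saccharomyces cerevisiae BJ5465), induced 36–48 hours with galactose, were stained 1 hour at 4 °C with 10% biotinylated, detergent-solubilized Sf9 membrane reagent, enriched on streptavidin microbeads, then FACS-sorted. Anti-HA (expression) and streptavidin (reagent binding) fluorescence set low and high (top ~1%) gates. Polyreactivity labels come from the gate of origin. Genes were colony-PCR amplified, MiSeq 2 × 250 sequenced and filtered by CDR length.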

Sequence | polyreactivity (PSR sort gate)
QVQLVESGGGLVQAGGSLRLSCAASGSTYRYNAMGWYRQAPGKERELVAAITSGGRTNYADSVKGRFTISRDNAKITVYLQMNSLKPEDTAVYYCAARRYGRNWHYDYWGQGTQVTVSS | high polyreactivity
QVQLVESGGGLVQAGGSLRLSCAASGSIFRYYTMGWYRQEPGKERELVAAISCNGGRTYYADSVKGRFTISCDNAKNTVYLQMNSLKPEDTAVYYCNAVYILTETWYDYWGQGTQVTVSS | high polyreactivity
QVQLEESGGGLVQAGGSLRLSCAASGRIFSRYAMGGYRQAPGKERELVAAITQSGTSTYYADSVKGRFTISRDNAKNTVYLQMNSLKPEDTAVYYCNAYRQYRYDYWGQGTQVTVSS | low polyreactivity
QVQLVESGGGLVQAGGSLRLSCAASGSIQYYAMGWYRQEPGKERELVAAIRFSGGRTYYADSVKGRFTISRDNAKNTVYLQMNSLKPEETAVYYCAAYRSPRRSGAPSQGKFDYWGQVTQVTVSS | high polyreactivity
QVQLEESGGGFVQAGGSLRLSCAASGSIFYYYVMGLYRQAAGKERELVAALTNSDRTYYADSVKGRFTISRDNAKNTVYLQMTSLKPEDTAVYYCAADYYWSPYYVYQFDYWGQGTQVTVSS | low polyreactivity
QVQLVESGGGLVQAGGSLRLSCAASGIIFAYYAMGWYRQAPGKERELVAAISWNSGYTYYADSVKGRFTISRDNAKNTVYLQMNSLKPEDSAVYYCAAESYYSYSYYRPYEYYYWGQGTQLTVSS | high polyreactivity
QVQLVESGGGLVQAGGSIRLICAASGSIFRLYAKGWYRQAPGKEREFVAAISSRGGSTYYADSVKGRFTISRDKAKNTVYLEMNSLKPEDSAVDYCAVYGYHEGGYWGQGTQVTVSS | high polyreactivity
QVQLVESGGGLVQAGGSLRLSCAASGGTFGLDAMGWYRQARGKERELVARISWSSGSTYYADSVKGRFTISRDNAKNTVYLQMNSLKPEDTAVYYCATDTYGAHAFFEFDYWGQGTQVTVSS | low polyreactivity
QVQLVESGGGLVQAGGSLRLSCAASGRTFQVNAMGWYRQAPGKERELVAGITQRAGSTYYADSVKGRFTISRDNAKNTVYLQMNSLKPEDTAVYYCAAQDVHLWYENYYWGQGTQVTVSS | low polyreactivity
QVQLVESGGGLVQAGGSLRLSCAASGFIFNYYVMGWYRQAPGKERELVATISWRGGRTYYADSVKGRFTISRDNAKNTVYLQMKSLKPEDTAVFYCAKESYYFTRYDYWGQGTQVTVSS | low polyreactivity
QVQLVESGGGLVQAGGSLRLSCAASGSTFDIYAMGWYRQAPGKEREMVAAIDFSGGSTYYADSVKGRFTISRDNAKNTVYLQMNSLKPEDTAVYYCAADVQKHFYSFGDERGFPFDYWGQATQVTVSS | low polyreactivity
QVQLVESGGGLVQAGGSLRLSCAASGRTLGGYAMVWYRQAPGTERELVAAITRRGGSTYYADSVKGRFTISRDNAKNTVYLQMYSLKQEDTAVYYCAARYLYSDEYWDKFYYWGQGTQVTVSS | high polyreactivity
QVQLVESGGGLVQAGGSLRLSCAASGSIFSRYAMGWYRPAPGKERELVAAISRSTGSTYYADSVKGRFTISRDNAKNTVYLQMNSLKPEDTAVYYCAAKWIRWGYVSSNSRFGYWGQGTQVTVSS | high polyreactivity
QDQLVESGGGLVQAGGSLRLSCAASGRTFWRYALGWYRQAPGKEREMVAAISSGGITYYADSVKGRFTISRDNAKNTVYLQMNSLKPEDTAVYYCARYGPYESSYHYDYWGQGTQVTVSS | high polyreactivity
QVQLVESGGGLVQAGGSLRLSCAASGGIFPYYVMGWYRQAPGNEMELVAAINSGGTTYYADSVKGRFTISRDNAKNTVYLQMNILKPEDTAVYYCAAYYAGFGYNYWGQGTQVTVSS | low polyreactivity
QVQLVESGGGLVQAGGSLRLSCAASGSTFVRYAMGWYRQAPGKERELVASISSSGSTYYADSVKGRFTISRDNAKNTVYLQMNSLKPEDTAVYYCAKQYGGRYGYWGQGTQVTLSS | low polyreactivity
QVQLVESGGGLVQAGGSLRLSCAAWSIFYLNAMGWYRQAPGKERELVAAISSAGSTYYADSVKGRFTISRDNAKNTVYLQLNSLKPEDTAVYYCAAYWYDSPGVTEIWYDYWGQGTQVTVSS | low polyreactivity
QVQLVESGGGLVQAGGSLRLSCAASGIIFYANAMGWYRQAPGKERELVAAISWSGSSTYYADSVKGRFTISRDNAKNTVYLQMNSLKPEDTAVYYCNKATSSVRYLKYYYWGQGTQVTVSS | high polyreactivity
QVQLVESGGGLVQAGGSLRLSCAASGFTFYTYFMGWYRPAPGKERELVAAITSGVSTNYADSVKGRFTISRDNAKNTVYLQMNSLKPEDTAVYYCNKDVRPAYRWYDYWGQDTQVTVSS | low polyreactivity
QVQLVESGGGLVQAGGSLRLSCAASGSTFYRYTMGWYRQAPGKERELVAAISRSGGRTYYADSVKGRFTISRDNAKNTVYLQMNSLIPEDTAVYYCNAEIASSAVQAQEGDYWGQGTQVTVSS | high polyreactivity
QVQLVESGGGLVQAGGSLRLSCVSSGFTFYFYAMGWYRQPPGKEREFVATITSNGGSTYYADSVKGRFTISRDNAKNTDYLQINSLKPEDTAVYYCNAGRYVRWWWYSPDDYWGQGTQVTVSS | high polyreactivity
QVQRVESGGGLVQAGGSLRLSCAASGSIFVFYAMGWYRQAPGKERELVATISSVGRTNYADSVKGRFTISRDNAKNTVYLQMNSLKPEDTAVYYCAARRFRGSYYWGQGTQVTVSS | high polyreactivity

Sequence | polyreactivity (PSR sort gate)
QVQLVESGGGLVQAGGSLRLSCAASGNIFSRYAMGWYREPRGKERELVAAISSSGGTTYYADSVKGRFTISRDNAKNTVYLQMNSLKPEDTAVYYCNARRRQIYSEFGYWGQGTQVTVSS | high polyreactivity
QVQLVESGGGLVQAGGSLRLSCAASGRIFKYYTMGWYRQAPGKERELVAAISRDDSTNYADSVKGRFTISRDNAKNTVYLQMNSLKPEDTAVYYCAKGYHQYAGFYYWGQGTQVTVSS | high polyreactivity
QVQLVESGGDLVQAGGSLRLSCAASGSIFYINAMGWYRQAPGKERELVASISYSGTSTYYADSVKGRFTISRDNAKNTFFLQMNSLKPEDTAVYYCNAEDTAGAGDGYWGEGTQVTVSS | low polyreactivity
QVQLVESGGGLVQAGGSLRLSCAASGRTLRYNVMGWYRHAPGKERELVAAISSGGSTYYADSVKGRFTISRDNAKNTVYLQMNSLKPEDTAVYYCAKRVSNWVTGGGYYYWGQGTQVTVSS | high polyreactivity
QVQLVESGGGLVQAGRSLRLSCAASGRTFPYYVMGWYRQAPGKDRELVAAINSGGRTNYADSVKGRFTISRDNAKNTVYLQLNSLKPEDTAVYYCTKRGHPARLGYYYWGQGTLVTVSS | low polyreactivity
QVQLVESGGGLVQAGGSLRLSCAASGSIFGPYAMGWYRQAPGKERYADSVKGRFTISRDNAKNTVYLQMNSLKPEDTAVYYCNADTSRWRYSQPIYDYWGQGTQVTVSS | low polyreactivity
QVQLVESGGGLVQGVGTLRLSCAASGITFVYYAMGWSRHAPVKERELFAAISSGGSSTYYADSVKGRFTMSRDTAKNTVYLQMHSQKPEDTAVYYCAATNYFPRLQWMDYWGQGTQVTVSS | low polyreactivity
QVQLVESGGGLVQAGGSLRLSCAASGRIFTSYAMGWYRQAPGKERELVAAINRGGSTYYADSVKGRFTISRDNAKNTVYLQMNSLKPEDTAVYYCNATPPYNPEFDYWGQGTQVTVSS | low polyreactivity
QVQLVESGGGLVQAGGILRLSCAASGSTFAVYAMGWYRQAPGKERELVAAISRSGGRTYYADSVKGRFTISRDNAKNTVYLQMNCLKPDDTAVYYCAAPSTCSYGSDYWGPGTQVTVSS | high polyreactivity
QVQLVESGGGLVQAGGSLRLSCAASGYTFAGYAMGWYRQAPGKERELVAAISQSGGRTYYADSVKGRFTISRDNAKNTVYLQMNSLKPEDTAVYYCNARAYYAGTYYVSRYYYWGQGTQVTVSS | high polyreactivity
QDQLVESGGGLVQAGGSLRLSCAASAFIFSSYAMGWYRQAPGKERELVAAITVRAGRTYYADSVKGRFTISRDNAKYTVYLEMNSLKPEDSAVYYCAADSGLWGYYYWGQGTQVTVSS | high polyreactivity
QDQLVESRGGLVQAGGSLRLRCAASGRIFTRYAMGWYRQAPRKERELVAAITYNGGSTYYADSVKGRFTISRDNAKNTVYLQMNSLKPEDTAVYYCNAVYMSWFGLYAGFDYWGQGTQVTVSS | high polyreactivity
QVHLVESGGGLVQAGGSLRLSCAASRGIFHYYAMGWYRQAPGNERELVAAISWNTGSTYYADSVKGRFTISRDNAKNTVYLQMNSLKPEDTAVYYCAASYRSPWMRYDYWGQGTQVTVSS | high polyreactivity
QVQLVESGGGLVQAGGSLRLSCAASGSIFPDNAMGWYRQAPGKERELVATIRSTGGTNYADSVKGRFTISRDNEKNTVYLQMNSLKPEDTAVYYCATDLWSTTGSEYDYWGQGTQVTVSS | low polyreactivity
QVQLVESGGGLVQAGGSLRLSCAASGSTFPGNAMGWYRQSPGKERELVAAISDGVRTSYADSVKGRFTISRDNAKNTVYLQMNSLKPEDTAVYYCNADFARQYDPHVLYITVGMDYWGQGTKVTVSS | low polyreactivity
QVQLVESGGGLVQAGGSLRLSCAASGSTFSYNAMGWYRQAPGKERELVATITYSGGTTYYADSVKGRFTISRDNAKNTVYLQMNSLKPEDTAVYYCAALYSFSYLSTSFVVEDWYYYWGQGTQVTVSS | high polyreactivity
QVQLVESGGGLVQAGGSLRLSCAASGNTFYKYAMGWYRQAPGKERELVADISWSGGSTYYADSVKGRFTISRDNAKNTVYLQMNSLKPEDTAVYYCNADTPVWDGHAYPVDYWGQGTQVTVSS | low polyreactivity
QVQLVESGGGLVQAGGSLSLSCAASGITFEWYAMGWYRQAPGKERELVAAISTSGGSTYYADSVKGRFTISRDNEKNTVYLQMNSLKPEDTEVYYCNTVSYGYSSKLYDYWGHGTQVTVSS | high polyreactivity
QVQLVESGGGLVQAGGSLRLSCAASGFTFKVYNAMGWYRQAPGKERELVAAITSSVGGTYYADSVKGRFTISRDNAKNTFYLQMNSLKPEDTAVYYFATDGPISPYWEWPWLLYDYWGQGTQVTVSS | low polyreactivity
QVQLIESGGGLVQAGGSLRLSCAASGSIFAANAMGWYRQAPGKEREFVASISYTGASTYADSVKGRFTISRDNAKNTVYLQMKSLKPEDTAVYYCAKDGYWTGLDPYYYWGQGTQVTVSS | low polyreactivity
QVQLVESGGGLDQARGSLRLSCAASGRIFYTYAMGWYRRAPGKERELVAAISRSGTSTYYADSVKGRFTISRDNAKNTVYLQMNSLKPEDTAVYYCAAAKWYSVAYVGTFKYDYWGQGTQVTVSS | high polyreactivity

From the nanobody polyreactivity screen of Harvey et al. (2022)
